Experimental data: the domain aggregation screens of Martell et al. (2025)

Test: soluble fraction after stress (log2 fold change); higher = more stays soluble; pooled small domains, quantitative proteomics
Details: stress: pH 4
Outline: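 Pooled custom libraries of small protein domains were subjected to pH 4 and measured by high-throughput quantitative proteomics. The log2 fold change in soluble amount per domain is reported, higher values meaning more remained soluble. This is used as a measure of aggregation propensity.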

Sequence | soluble fraction (log2)
HMTKIKAIFFDIDGTIRSFKTKTIPENTANTLKKLKEQGIKIFIATGRAPFHTTFLNDLLDFKFDGYITIN | -0.0405
HMTKKSLFNQYLDDQKRLDIVTLQKAELVDLHKLADELNIDQYNQLKKNELIFKILQSNPSE | -0.361
HMTKNEFLQGLKEELEGRVTHSAIQENIRYYDDYISQEVLKGSTEEEVTESLGGPRIIARTIVDAAYD | -2.29
HMTKPLHELLSQREFQVFTQLAAGRSVGEIAQQLSLSSNTVSTYRARILEKTGTRNDVELALYAIRR | -0.231
HMTKPTLMEVEIKGAIQNPGVYTLKRNSSISKLIKMSGPLLENADTSSISFTHILQDKDVVVIPEIK | -0.177
HMTKQEYLNQLKNELVKQGVADAEDVVTEYEQHFAFKLADGFGEEEIAKKLGDPAAIASQFVG | -1.16
HMTKQMELLAQGAAKLSVDLNQRQLDQLQTYYRELVDWNQRMNLTAITQYEEVQVKHFLDSL | -0.294
HMTKRKNTEFRQQQIIEAAAKLIFKYGSEHLTVKRIAAQVGISEAAIYRHFTSKKSILSFLLSHIEE | -0.317
HMTKRTVKSVARKIADFNRERHRMPTYEEMLTLLAVRSKSVVHFWMNKLLQEGILEKDESGHLTFV | 0.14
HMTKSSAYLSAEKLINKKQYSDAIVKLNDALVTDSKNADIYNYLGFSHRKLGKMEDAAFFYNKALE | -0.165
HMTLDDSFYQKADEIIANHTKEERSLIPIIQDIQAEYRYLPPELLTYVAKEIGITDARAYSVASFYENFS | -1.21
HMTLDEDYFYYTLKAKEGYYRLYKKLGVDRKIIDSLNPNLKEMGLQVGMVIRVPKSQTSDLSVKNSLLVE | -0.61
HMTLHDLFPQAVEFVSEKEMISTAELQRKLMISYNSAAKIIDQLLHVDFIQKSESAGKYSVLIK | -0.486
HMTLNTQLFTWKKGVRVGEDDQGNIYYRTKDDKRRWVIFTGETEATKVSPDWHGWLHRTWATPPNK | -0.14
HMTLPGQDFIRASQLKELIAKYDKQYYEEGVSDISDAEYDRLYEEYLEFENKYPELKDMADAPTKRV | -0.661
HMTLREQISALIKQGKLTQAKLARETGVNGGALSAWINGKYTGNVETVEEPIKHWMALNERK | ≥ 0.43
HMTLSVRQRMSQIINKIDVSNFTDFTKLFDINEGRLGVAVTFLAILELLKDTMIDVIQNEEFAPLHIKVSS | -0.339
HMTMIIQLDKNITQEQRQFLVEELNRLSISPNFVSTQFTNYIVGIPKKEFDIRLIGNLPGIADIHFV | -0.269
HMTMKVTADILNMRSEASTNSDIVTKLKKDDELKVIEETKDDDGVTWVKVDFNGQVGFVSKEFLG | -0.623
HMTMLLEYNVSRSSKWMNKTIMDAEIPDDILIVMIKRNGQVIVPKGSTEILENDILVLSGNNLNEVALG | -1.46
HMTMNYYDILSIKRDATLEEIQKAYKEKSFQFHPDFNKGISDDSMFRIIKEAYETLSDTEKRNQYDASLNK | -0.134
HMTMQTAEQESRLEQKLIDLSVGIDRFEGYSRPHGQLIASIADRIGTRLGMAAHDRFYMQQAAL | -0.0547
HMTNADRFIGEEAMVIKKIDDINNDGQVKIAGQVWSAVSEDKSPLEEGTIVKVIAIRGVKLVVEPVS | 0.0967
HMTNALDMMKTMDSDAYTKYQKISKESSNEDRQLNELKYITNWYAGAVKKNPSMVDDYEKQKEADS | 0.162
HMTNELTEIFNSIRLTKKQKELLQSNYLSLRETYFLQGKTAFNLKFKNIAGLGKSTKKVLLEFFEESIE | -0.499
HMTNIDIEKSIKNTITANYDDVLNYHNEDDNKTFASGDSRYSFDYDEKTKTLIVFTNSKVDAVFVDGIKKK | 0.255

Sequence | soluble fraction (log2)
HMTNISDYILEEYYKNVYPNDLNTKRIVIPNKYEEYAGKYTYITIARMVTYEHDAKKALKVLHQQAT | -0.346
HMTNKYSSLVIGTVKTIMEEDQYKNLMGPPLKKEIIKQVDKFTNALPIEFDQNDKDFYVKKILINL | -0.299
HMTNLKALRESKGVSQQTVADYLGITRQAYGNYETGKRQADYAALLRLAAFFGVSVDALLQP | 0.102
HMTNNDIIRRVRYLFNFSDKQVIELFKLANETVSIEHVSGWLKKEEDPTLIEISDRDLAVFLNGLII | -1.65
HMTNQEFNEVFKLLLAAYPNTKDKESVATIYFLTIANELTKKEFAEAVVKILKTRKSGFIPQPAEILEVAK | -0.208
HMTNSAGIERFLASGAIDGVGPAMARRIVEHFGTEALRIIESVPHRLREISGIGPKTAEKIASSYMRQ | -0.618
HMTNTDALINRAAKVVEEINPDKNTGRVSIDGDLWRAKSSSGELIEQNKQVIVISIESTIVTVKI | -0.317
HMTNTWNNIVERNDLFFKKFTNTPFNGKIETYWPNGNLKETGIITDGKKDNLWEYYYENGNPKEVEF | -0.0781
HMTNVFSIIGKKALVIKDIDPIHSSGQIKLNGEVWSAETENDEIIKEGSEVEVLKINGVKAIVKLV | 0.149
HMTNVIPKAMAPFNGSTIIADGIKNIKDHIDNLYITVGYKGATLSEHVINKGVSAVFNTTGKGNAWWVYN | 0.00444
HMTNVLSEQESKLLERMNKAGLNAEITVKKAAQILNLSESAARNVLNRLVGKGYLTVDTSRLPFLFQR | 0.122
HMTNVVSKNKAKEIAMNIINDTVLQGQTAATFKEIVKANGVYVVKIEIQGQEYTSYITKDGKIVFPYGVEV | -0.661
HMTNYSFIVNENFNNKRIDQVVANHYPKISRTKVNKIIKNNLLKLNGSTFNDPSAKVKLGDQIEFENL | 0.00451
HMTPAKQVSAKAERWIDQLGSSDWEKREEAAAELKKLGGAAKSALEKALKNADPEVASKAEELLEALES | 0.213
HMTPATVVIPKVAGQTVAEAKETLKNANFEIGEEKDESSDTVEEGRVIRTDPESGTNRKEGTKINLIVSS | 0.0687
HMTPFVINVDRHGAVIINEKTVDIDEAVVLARQERSQGKSILLAGDKKAPYEAIIRVLDALKQAG | -0.464
HMTPNATWQDDAQNLLRDLIQHQPVLVQISAAKRLRDQAEQISRITGGETVTREHVEAAGHALGMGVT | -0.0443
HMTPNRDDEHLQSLRDYYASNRRIPSLQRIAALLGFSSRSAAVKLMGRLADEGFVERTVDDDAWIPGSRFF | -0.194
HMTPQDYEYLRKLLKDQSGLDLSVDKQYLLESRLVPLSRKAGLAGIPELVQKMKAGSASLTAQVVEAMTT | 0.07
HMTPVFGEEETVLQAAVRGIISDTDQWTMEAEAKSMLNQLGFSDYEEKMAHMSGGQKKRVALVNALLTP | -0.555
HMTQDFEPGGQVFSRGEWLTIIRVNKSNGAVSSVTTPNYSFLGYSGTMKVTPDRITDYKAPSAEEAAVAS | -0.0277
HMTQGRVTGDGVNVRSQPNTDSAILTRVSTGKVVELISLKDNWYNVVVNGTKGYIRADYVSPYDG | 0.00816
HMTQLPEVPVERGMVLEEVQSGWVGAVTRVEKSGGMHVVALEDRRGKSRSFRLGFGFLLEGQPIRLMPPAP | -0.882
HMTRAETPMAFIRAMVEAYTERGLDPNQALRKAQITPSQLKSTNARVTTLQMEWMSETAMREL | -0.464
HMTRDAQLAALERLMDDPSPVVRKAVLKGVQAAGTEGLLWLQQLSKNQTLGPYALALLTELR | -0.0392
HMTRNGTVTFFNHDKGYGFIKDVLTQESVFVHINSLSEPINEQNKVSFEIEMGPRGSNAINVKLI | -1.86

Sequence | soluble fraction (log2)
HMTRTEYMAQLEKYLKKLPHKEFQEAITFFNEYFDEAGPEKETAIMEELGSPKEAASELITNILNRHI | -0.101
HMTRTISKVAKELAINIETVRFYERRGLIEQPPKPELGYRHYPDETVNRIRFIKRAQELGFTLEEIANLLS | -1.21
HMTRVDALDQLAAIRFSSHIFAEDQDLRMVVVDGQRIGEGDIVRDEIRLEQITETGVIFEYQGERFPIDV | -2.21
HMTRYQHLAMLLEKRIAQGLYRNGERLPSVRSLSAEHGVSISTVQQAYYLLEQKQLIIPQSRSGYYVAPH | -0.378
HMTSEVPVGSNVRIRASTLAGERDFEGTMLPPAGEGLTTLKLVNGYNLSYPSKDVLDIEFLGGAGE | -0.367
HMTSHPTHTILDGKVHVFMRDGSPFWWGGFHFKGKYLRTSTKQKNLDSAKTIAQQWYFQKQTEIASGE | -0.0801
HMTSKVTVLAVNGRITVSGKEQDETVSVYDTGGRLLYQGESDVINVPRKAMYIVTVSRKSYKVIV | 0.00912
HMTSLAGIERFLASGAIAGVGEAMAHRLVQKFGKETLEIIEKKPSRLTEVAGVGKKTAAKIHASYMEK | 0.0893
HMTSLGLEGLVNTTAIATSDLRPSGWALAGERKIFVVSEGEFIDNGDKIRILTVDGNRIVVRKETNK | -0.189
HMTSLTSDEEQIINVLRAEESVYINALATKSKIPLQKLLGLLIQLEFKGLIHSLPGSHYKIV | -0.473
HMTSNIIIVPNVVGMTKEQATAALAAAGLNIKLSGVETTDTAAVAVKQKPSANTKVEEGSVVTVEFDLK | -1.35
HMTSPKSRIVSALLASPSRPEELAMRLGEDILTLMRTLTDFEASGIIQRLPDGRYTPTREYHLGLVDK | -0.534
HMTSPRRLYALIVEHVGKDGVMHRSDVENVLAKVESEMDVDDLLDQLEINGTIIRRQDGTWQLL | -1.66
HMTSRFITTEEGTLYVDADGRKVSGWQTIDGSRYYFDEHGIRQSGTIEVNGETYVLDEDGVL | -1.51
HMTSRWEIGYNVAKKYYDEHGNLDVERAVYDNFELKKWLNTQRYKNSAGTLAEKYKIKLDELGMNWER | -0.00494
HMTSSQLYLIEEDMEGERLDAFLAEVIADLSRTAIKDLISNGRVLVDGQARKPSYRVKEGEQVLIHVPEAR | -1.31
HMTSVFQNSDGTWGHLTKTVNPLIYTIEYGRRTGFSSREEAEESYQRSLTSYQDQLSKLKKERD | 0.223
HMTSVPGTVVTNANLRGGPGTNYPIVGKAPAGTTVNVVESTADRTWYYLDTGSWIAAFLVKLS | -0.229
HMTSVRVPVKKEIWFWAIKESQRDLNEILARFPKMDKWINQEENPTFNQLEKVAKFLRVPFGYMFLDKPPK | 0.332
HMTTETGTVKWFNEGKGFGFIAPDGGGKDLFAHFKEIQGSGFKTLTENQRVQFEVTQGQKGPQASNIRTL | -0.183
HMTTHEQVAILRRELNGLVGAWHHRTGQAHGVTHSKLRKELGGPPAAVASAAQLSARIEKIRQWAT | -0.0306
HMTTIAQMTGPQRAAVILLVLGEDHGRTIWQEFDDDEIRIITRAMAELGTVDADEVERLMLDFVGKLSS | -1.75
HMTTIAQNISNYRTRANMTQQQVADKLSVSHHTVSKWELGINTPSVEDMQKLAQVFGVTITELVVD | -0.662
HMTTIHVDPEKISKIIGPGGKTIKKIVEETGAKIDIEEDGRVYIAAVNSEEAAKAIDMINGI | -0.274
